Test results taken from publication doi:10.1101/803361 (bioRxiv, 2019).

Tests used:
[1] = target: Human Hsc70 (HSPA8), wild type (human, UniProt P11142 1-646); assay: HDX-MS
[2] = target: the molecule itself; assay: SEC + native gel or EMSA

Human Hsc70 (HSPA8), wild type, sequence (P11142 whole entry): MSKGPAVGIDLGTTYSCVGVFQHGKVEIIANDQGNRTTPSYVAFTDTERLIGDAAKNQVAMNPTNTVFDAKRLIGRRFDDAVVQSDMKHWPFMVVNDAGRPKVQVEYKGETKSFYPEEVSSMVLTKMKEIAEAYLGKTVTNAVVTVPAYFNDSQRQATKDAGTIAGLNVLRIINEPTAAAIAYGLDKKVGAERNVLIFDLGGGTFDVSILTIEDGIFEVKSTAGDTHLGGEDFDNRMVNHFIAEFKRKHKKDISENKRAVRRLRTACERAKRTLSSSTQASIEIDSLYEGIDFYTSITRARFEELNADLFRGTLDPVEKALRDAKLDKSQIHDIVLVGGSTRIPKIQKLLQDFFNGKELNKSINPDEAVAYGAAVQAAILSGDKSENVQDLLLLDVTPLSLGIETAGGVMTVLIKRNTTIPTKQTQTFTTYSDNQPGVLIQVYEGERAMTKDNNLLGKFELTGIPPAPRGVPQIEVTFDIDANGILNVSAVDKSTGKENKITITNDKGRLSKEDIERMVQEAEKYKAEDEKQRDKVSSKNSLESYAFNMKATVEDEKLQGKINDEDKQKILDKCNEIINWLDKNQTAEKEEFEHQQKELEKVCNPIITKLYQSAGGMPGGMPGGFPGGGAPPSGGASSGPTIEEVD

Binder	binding result [1]	stoichiometry N [2]
Human heat shock transcription factor 1 (Hsf1), wild type (natural protein) MDLPVGPGAAGPSNVPAFLTKLWTLVSDPDTDALICWSPSGNSFHVFDQGQFAKEVLPKYFKHNNMASFVRQLNMYGFRKVVHIEQGGLVKPERDDTEFQHPCFLRGQEQLLENIKRKVTSVSTLKSEDIKIRQDSVTKLLTDVQLMKGKQECMDSKLLAMKHENEALWREVASLRQKHAQQQKVVNKLIQFLISLVQSNRILGVKRKIPLMLNDSGSAHSMPKYSRQFSLEHVHGSGPYSAPSPAYSSSSLYAPDAVASSGPIISDITELAPASPMASPGGSIDERPLSSSPLVRVKEEPPSPPQSPRVEEASPGRPSSVDTLLSPTALIDSILRESEPAPASVTALTDARGHTDTEGRPPSPPPTSTPEKCLSVACLDKNELSDHLDAMDSNLDNLQTMLSSHGFSVDTSALLDLFSPSVTVPDMSLPDLDSSLASIQELLSPQEPPRPPEAENSSPDSGKQLVHYTAQPLFLLDPGSVDTGSNDLPVLFELGEGSYFSEGDGFAEDPTISLLTGSEPPKAKDPTVS	binds	–
Hsf1-I190S,I194S (natural protein) MDLPVGPGAAGPSNVPAFLTKLWTLVSDPDTDALICWSPSGNSFHVFDQGQFAKEVLPKYFKHNNMASFVRQLNMYGFRKVVHIEQGGLVKPERDDTEFQHPCFLRGQEQLLENIKRKVTSVSTLKSEDIKIRQDSVTKLLTDVQLMKGKQECMDSKLLAMKHENEALWREVASLRQKHAQQQKVVNKLSQFLSSLVQSNRILGVKRKIPLMLNDSGSAHSMPKYSRQFSLEHVHGSGPYSAPSPAYSSSSLYAPDAVASSGPIISDITELAPASPMASPGGSIDERPLSSSPLVRVKEEPPSPPQSPRVEEASPGRPSSVDTLLSPTALIDSILRESEPAPASVTALTDARGHTDTEGRPPSPPPTSTPEKCLSVACLDKNELSDHLDAMDSNLDNLQTMLSSHGFSVDTSALLDLFSPSVTVPDMSLPDLDSSLASIQELLSPQEPPRPPEAENSSPDSGKQLVHYTAQPLFLLDPGSVDTGSNDLPVLFELGEGSYFSEGDGFAEDPTISLLTGSEPPKAKDPTVS	–	3
